From patent publication US10570379B2, “Polypeptides for carbon-carbon bond formation and uses thereof” (INVISTA North America S.à.r.l., priority 2015, dated 2020) come the findings set out here.

Data set [1] in a line: Mutant E324G provided with propionyl-CoA and acetyl-CoA. It counts as biochemical. The conditions noted are these: propionyl-CoA + acetyl-CoA. On the procedure: (§1) Acetyl-CoA was used at a final concentration of 1.5 mM and 30 mM of the substrate being studied (e.g. carboxylic acid salts, such as sodium acrylate) or 1.5 mM of propionyl-CoA in 50 mM Hepes buffer (pH 7.5). The reaction was started by addition of 0.5 mg/mL of YdiF pure protein or mutants to a final volume of 250 μL and incubated for 1 to 10 hours at 30° C.
(§2) All samples were prepared in triplicate and spun down at 15000 g for 20 min at 4° C. Detection of the thiol product (e.g. acryloyl-CoA) synthesized from CoA-transferase activity and the keto-thiol product (e.g. 3-oxopent-4-enoyl-CoA) due to putative thiolase activity of YdiF (or homologues) was carried out by Liquid Chromatography coupled to a qTof-Mass spectrometry (in positive mode), using a C18 column (Zorbax Eclipse C18, 2.1×50 mm, 1.8μ, Agilent, code product: 959757-902) and a gradient of 10 mM ammonium acetate and acetonitrile as mobile phase.
(§3) Mutations were introduced as described in Example 1 to replace the glutamate in position 324 of YdiF (see Selmer et al., 2002) with glycine (mutant E324G) or leucine (E324L). Activity of the mutant enzymes was studied as described in Example 2.

Data set [2] in a line: Activity of YdiF mutant enzymes (evaluation of potential active sites). The class given is biochemical. Particulars: studied as in Example 2. The protocol:
YdiF mutants were prepared using the relevant primers to introduce the mutated bases via the Quick change lightning kit (Agilent, code product: 210518-5), and cloned into E. coli. In addition, all the proteins used in this experiment have the following extra amino acids added in the N-terminal extremity of the original protein sequence (SEQ ID NO:1): […]. Those additional amino acids correspond to: two amino acids (M and G), a 6×His-tag followed by a 3 amino acids linker (SSG), and a specific proteolytic cleavage site (thrombin site, underlined) (SEQ ID NO: 22). All the sequences were confirmed by DNA sequencing.
as §1, §2
Mutations were introduced as described in Example 1 at the following positions previously found to be potentially involved in the active site of other β-ketothiolases: C258A, S60A, C112A, S38A, C390A. Activity of the mutant enzymes was studied as described in Example 2.
as §3

B1: E324G: YdiF mutant, glycine for the glutamate in position 324, SEQ ID NO: 3 (protein)
chain: MGHHHHHHSSGLVPRGSMRKVPIITADEAAKLIKDGDTVTTSGFVGNAIPEALDRAVEKRFLETGEPKNITYVYCGSQGNRDGRGAEHFAHEGLLKRYIAGHWATVPALGKMAMENKMEAYNVSQGALCHLFRDIASHKPGVFTKVGIGTFIDPRNGGGKVNDITKEDIVELVEIKGQEYLFYPAFPIHVALIRGTYADESGNITFEKEVAPLEGTSVCQAVKNSGGIVVVQVERVVKAGTLDPRHVKVPGIYVDYVVVADPEDHQQSLDCEYDPALSGEHRRPEVVGEPLPLSAKKVIGRRGAIELEKDVAVNLGVGAPEYVASVADEEGIVDFMTLTAGSGAIGGVPAGGVRFGASYNADALIDQGYQFDYYDGGGLDLCYLGLAECDEKGNINVSRFGPRIAGCGGFINITQNTPKVFFCGTFTAGGLKVKIEDGKVIIVQEGKQKKFLKAVEQITFNGDVALANKQQVTYITERCVFLLKEDGLHLSEIAPGIDLQTQILDVMDFAPIIDRDANGQIKLMDAALFAEGLMGLKEMKS
Turning to B1, the “keto-thiol product (3-oxopentanoyl-CoA)” value in data set [1] was “presence of the keto-thiol product”. In addition, the transferase activity result in data set [2] is recorded as “Abolition of transferase activity”.
